Experimental data as given in PMC7481392, “Identification of MltG as a Prc Protease Substrate Whose Dysregulation Contributes to the Conditional Growth Defect of Prc-Deficient Escherichia coli” (Frontiers in Microbiology, 2020).
Substitutions are numbered along the chain they refer to.

T1: Prc protease (wild type), C-terminally His6-tagged (E. coli, UniProt P23865 23-682, Dylight 549 NHS ester on amines)
T1 construct: Prc (Tsp), periplasmic protease of Escherichia coli, 76 kDa; encoded on pTR147 (Spiers et al., 2002); also called Tsp; Prc (WT); source: E. coli DH5α harboring pTR147, purified (Ni-NTA)
T1 sequence (looked up): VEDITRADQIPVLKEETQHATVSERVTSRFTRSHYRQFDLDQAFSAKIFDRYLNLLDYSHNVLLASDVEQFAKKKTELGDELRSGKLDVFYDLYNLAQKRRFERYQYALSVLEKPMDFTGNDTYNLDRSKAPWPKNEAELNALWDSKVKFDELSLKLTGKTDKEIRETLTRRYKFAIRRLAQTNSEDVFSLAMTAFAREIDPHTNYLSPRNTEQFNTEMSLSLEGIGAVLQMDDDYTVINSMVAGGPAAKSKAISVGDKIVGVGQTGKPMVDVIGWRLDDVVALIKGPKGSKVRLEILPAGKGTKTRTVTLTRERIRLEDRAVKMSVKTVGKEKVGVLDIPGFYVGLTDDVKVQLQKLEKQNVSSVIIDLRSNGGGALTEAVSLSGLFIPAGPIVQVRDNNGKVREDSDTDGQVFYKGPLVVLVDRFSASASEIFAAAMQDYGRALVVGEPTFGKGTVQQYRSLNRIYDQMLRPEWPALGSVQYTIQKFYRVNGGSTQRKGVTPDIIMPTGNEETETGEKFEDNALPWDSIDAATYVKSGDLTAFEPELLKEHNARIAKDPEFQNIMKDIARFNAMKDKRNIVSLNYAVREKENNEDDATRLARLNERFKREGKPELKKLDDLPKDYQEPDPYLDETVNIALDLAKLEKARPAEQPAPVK

T2: K455A-Prc, catalytically inactive Prc mutant, C-terminally His6-tagged (E. coli, UniProt P23865 23-682, K455A, Dylight 549 NHS ester on amines (array assay only))
T2 construct: Prc (Tsp), periplasmic protease of Escherichia coli, with K455A; encoded on pTR163 (Spiers et al., 2002); The same construct was used purified and labelled on the array, and unlabelled in lysate for the co-IP; source: E. coli DH5α harboring pTR163, purified (Ni-NTA); E. coli ΔmltG-BW25113 harboring pTR163, in lysate; not shown: His6, C-terminal, kept
T2 sequence (looked up): T1 sequence (looked up) with K455A

B1: HupA, N-terminally 6xHis-tagged, from the ASKA ORF library (on the proteome array) (natural protein, E. coli K12, UniProt P0ACF0 1-90, looked up)
chain: MNKTQLIDVIAEKAELSKTQAKAALESTLAAITESLKEGDAVQLVGFGTFKVNHRAERTGRNPQTGKEIKIAAANVPAFVSGKALKDAVK
notes: ORF clone of the ASKA library; source: E. coli, ASKA library clone, purified (Ni-NTA, high-throughput)
B2: RfaD, N-terminally 6xHis-tagged, from the ASKA ORF library (on the proteome array) (natural protein, E. coli K12, UniProt P67910 1-310, looked up)
chain: MIIVTGGAGFIGSNIVKALNDKGITDILVVDNLKDGTKFVNLVDLNIADYMDKEDFLIQIMAGEEFGDVEAIFHEGACSSTTEWDGKYMMDNNYQYSKELLHYCLEREIPFLYASSAATYGGRTSDFIESREYEKPLNVYGYSKFLFDEYVRQILPEANSQIVGFRYFNVYGPREGHKGSMASVAFHLNTQLNNGESPKLFEGSENFKRDFVYVGDVADVNLWFLENGVSGIFNLGTGRAESFQAVADATLAYHKKGQIEYIPFPDKLKGRYQAFTQADLTNLRAAGYDKPFKTVAEGVTEYMAWLNRDA
notes: RfaD, ADP-L-glycero-D-manno-heptose-6-epimerase, E. coli K12; ORF clone of the ASKA library; source: E. coli, ASKA library clone, purified (Ni-NTA, high-throughput)
B3: YdhS, N-terminally 6xHis-tagged, from the ASKA ORF library (on the proteome array) (natural protein, E. coli K12, UniProt P77148 1-534, looked up)
chain: MKKIAIVGAGPTGIYTLFSLLQQQTPLSISIFEQADEAGVGMPYSDEENSKMMLANIASIEIPPIYCTYLEWLQKQEDSHLQRYGVKKETLHDRQFLPRILLGEYFRDQFLRLVDQARQQKFAVAVYESCQVTDLQITNAGVMLATNQDLPSETFDLAVIATGHVWPDEEEATRTYFPSPWSGLMEAKVDACNVGIMGTSLSGLDAAMAVAIQHGSFIEDDKQHVVFHRDNASEKLNITLLSRTGILPEADFYCPIPYEPLHIVTDQALNAEIQKGEEGLLDRVFRLIVEEIKFADPDWSQRIALESLNVDSFAQAWFAERKQRDPFDWAEKNLQEVERNKREKHTVPWRYVILRLHEAVQEIVPHLNEHDHKRFSKGLARVFIDNYAAIPSESIRRLLALREAGIIHILALGEDYKMEINESRTVLKTEDNSYSFDVFIDARGQRPLKVKDIPFPGLREQLQKTGDEIPDVGEDYTLQQPEDIRGRVAFGALPWLMHDQPFVQGLTACAEIGEAMARAVVKPASRARRRLSFD
notes: YdhS, function E. coli K12; ORF clone of the ASKA library; source: E. coli, ASKA library clone, purified (Ni-NTA, high-throughput)
B4: YidA, N-terminally 6xHis-tagged, from the ASKA ORF library (on the proteome array) (natural protein, E. coli K12, UniProt P0A8Y5 1-270, looked up)
chain: MAIKLIAIDMDGTLLLPDHTISPAVKNAIAAARARGVNVVLTTGRPYAGVHNYLKELHMEQPGDYCITYNGALVQKAADGSTVAQTALSYDDYRFLEKLSREVGSHFHALDRTTLYTANRDISYYTVHESFVATIPLVFCEAEKMDPNTQFLKVMMIDEPAILDQAIARIPQEVKEKYTVLKSAPYFLEILDKRVNKGTGVKSLADVLGIKPEEIMAIGDQENDIAMIEYAGVGVAMDNAIPSVKEVANFVTKSNLEDGVAFAIEKYVLN
notes: YidA, sugar phosphatase, E. coli K12; ORF clone of the ASKA library; source: E. coli, ASKA library clone, purified (Ni-NTA, high-throughput)
B5: YaaW, N-terminally 6xHis-tagged, from the ASKA ORF library (on the proteome array) (natural protein, E. coli K12, UniProt P75617 1-237, looked up)
chain: MNVNYLNDSDLDFLQHCSEEQLANFARLLTHNEKGKTRLSSVLMRNELFKSMEGHPEQHRRNWQLIAGELQHFGGDSIANKLRGHGKLYRAILLDVSKRLKLKADKEMSTFEIEQQLLEQFLRNTWKKMDEEHKQEFLHAVDARVNELEELLPLLMKDKLLAKGVSHLLSSQLTRILRTHAAMSVLGHGLLRGAGLGGPVGAALNGVKAVSGSAYRVTIPAVLQIACLRRMVSATQV
notes: YaaW, function E. coli K12; ORF clone of the ASKA library; source: E. coli, ASKA library clone, purified (Ni-NTA, high-throughput)
B6: YfaU, N-terminally 6xHis-tagged, from the ASKA ORF library (on the proteome array) (natural protein, E. coli K12, UniProt P76469 1-267, looked up)
chain: MNALLSNPFKERLRKGEVQIGLWLSSTTAYMAEIAATSGYDWLLIDGEHAPNTIQDLYHQLQAVAPYASQPVIRPVEGSKPLIKQVLDIGAQTLLIPMVDTAEQARQVVSATRYPPYGERGVGASVARAARWGRIENYMAQVNDSLCLLVQVESKTALDNLDEILDVEGIDGVFIGPADLSASLGYPDNAGHPEVQRIIETSIRRIRAAGKAAGFLAVAPDMAQQCLAWGANFVAVGVDTMLYSDALDQRLAMFKSGKNGPRIKGSY
notes: YfaU (RhmA), 2-keto-3-deoxy-L-rhamnonate aldolase, E. coli K12; ORF clone of the ASKA library; also called RhmA; source: E. coli, ASKA library clone, purified (Ni-NTA, high-throughput)
B7: TyrA, N-terminally 6xHis-tagged, from the ASKA ORF library (on the proteome array) (natural protein)
chain: not shown
notes: TyrA, fused chorismate mutase/prephenate dehydrogenase, E. coli K12; ORF clone of the ASKA library; source: E. coli, ASKA library clone, purified (Ni-NTA, high-throughput)
B8: YacF, N-terminally 6xHis-tagged, from the ASKA ORF library (on the proteome array) (natural protein, E. coli K12, UniProt P36680 1-247, looked up)
chain: MQTQVLFEHPLNEKMRTWLRIEFLIQQLTVNLPIVDHAGALHFFRNVSELLDVFERGEVRTELLKELDRQQRKLQTWIGVPGVDQSRIEALIQQLKAAGSVLISAPRIGQFLREDRLIALVRQRLSIPGGCCSFDLPTLHIWLHLPQAQRDSQVETWIASLNPLTQALTMVLDLIRQSAPFRKQTSLNGFYQDNGGDADLLRLNLSLDSQLYPQISGHKSRFAIRFMPLDTENGQVPERLDFELACC
notes: YacF (ZapD), cell division protein, E. coli K12; ORF clone of the ASKA library; also called ZapD; source: E. coli, ASKA library clone, purified (Ni-NTA, high-throughput)
B9: YegV, N-terminally 6xHis-tagged, from the ASKA ORF library (on the proteome array) (natural protein, E. coli K12, UniProt P76419 1-321, looked up)
chain: MSGARLHTLLPELTTRQSVMVVGAAVIDVIADAYALPWRGCDIELKQQSVNVGGCALNIAVALKRLGIEAGNALPLGQGVWAEMIRNRMAKEGLISLIDNAEGDNGWCLALVEPDGERTFMSFSGVENQWNRQWLARLTVAPGSLLYFSGYQLASPCGELLVEWLEELQDVTPFIDFGPRIGDIPDALLARIMACRPLVSLNRQEAEIAAERFALSAEITTLGKQWQEKFAAPLIVRLDKEGAWYFSNDASGCIPAFPTQVVDTIGAGDSHAGGVLAGLASGLPLADAVLLGNAVASWVVGHRGGDCAPTREELLLAHKNV
notes: YegV, putative sugar kinase, E. coli K12; ORF clone of the ASKA library; source: E. coli, ASKA library clone, purified (Ni-NTA, high-throughput)

Target: T1, Prc protease (wild type), C-terminally …
Assay: peptide or protein array; E. coli K12 proteome array (N-terminally His6-tagged ASKA proteins spotted in duplicate on slides), blocked with 1% BSA in TBS, probed with 1 μM Dylight 549-labelled Prc variant in PBS pH 7.4 with 1% BSA, RT, 1 h; washed with TBS-T; triplicate
Details: both partners purified

Binder | binding result
B1 | binds
B2 | binds
B3 | binds
B4 | binds
B5 | binds
B6 | binds

Target: T2, K455A-Prc, catalytically inactive Prc …
Assay: as above
Details: both partners purified

Binder | binding result
B7 | binds
B4 | binds
B5 | binds
B8 | binds
B6 | binds
B9 | binds
